Results as given in paper PMC4565748.

Assays:
[1] = molecular target: complement C3b, site-specifically biotinylated (human) (UniProt P01024); assay: SPR
[2] = molecular target: complement C3b, site-specifically biotinylated (human) (UniProt P01024); assay: SPR; remark: listed apart in the source
[3] = molecular target: complement C3b, site-specifically biotinylated (human) (UniProt P01024); assay: AlphaScreen or HTRF

Sequence of complement C3b, site-specifically biotinylated (human) (P01024 23-667, chain 1 of 2): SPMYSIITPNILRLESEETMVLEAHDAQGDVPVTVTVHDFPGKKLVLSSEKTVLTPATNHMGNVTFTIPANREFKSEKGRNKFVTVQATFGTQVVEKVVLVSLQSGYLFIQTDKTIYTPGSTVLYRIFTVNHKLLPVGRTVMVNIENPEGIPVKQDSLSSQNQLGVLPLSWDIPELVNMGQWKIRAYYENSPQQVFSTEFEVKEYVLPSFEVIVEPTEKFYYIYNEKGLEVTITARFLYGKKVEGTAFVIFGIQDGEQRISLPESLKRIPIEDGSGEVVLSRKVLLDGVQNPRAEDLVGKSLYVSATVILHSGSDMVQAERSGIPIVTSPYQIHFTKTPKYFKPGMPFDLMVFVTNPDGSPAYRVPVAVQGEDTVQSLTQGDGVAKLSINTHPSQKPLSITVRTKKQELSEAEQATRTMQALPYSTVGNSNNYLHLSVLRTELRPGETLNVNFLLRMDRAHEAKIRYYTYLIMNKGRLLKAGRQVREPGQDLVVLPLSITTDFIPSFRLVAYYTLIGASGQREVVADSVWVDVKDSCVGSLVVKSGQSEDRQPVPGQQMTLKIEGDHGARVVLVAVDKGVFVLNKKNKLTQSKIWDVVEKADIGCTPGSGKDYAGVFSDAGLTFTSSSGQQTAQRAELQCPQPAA
Sequence of complement C3b, site-specifically biotinylated (human) (P01024 749-1663, chain 2 of 2): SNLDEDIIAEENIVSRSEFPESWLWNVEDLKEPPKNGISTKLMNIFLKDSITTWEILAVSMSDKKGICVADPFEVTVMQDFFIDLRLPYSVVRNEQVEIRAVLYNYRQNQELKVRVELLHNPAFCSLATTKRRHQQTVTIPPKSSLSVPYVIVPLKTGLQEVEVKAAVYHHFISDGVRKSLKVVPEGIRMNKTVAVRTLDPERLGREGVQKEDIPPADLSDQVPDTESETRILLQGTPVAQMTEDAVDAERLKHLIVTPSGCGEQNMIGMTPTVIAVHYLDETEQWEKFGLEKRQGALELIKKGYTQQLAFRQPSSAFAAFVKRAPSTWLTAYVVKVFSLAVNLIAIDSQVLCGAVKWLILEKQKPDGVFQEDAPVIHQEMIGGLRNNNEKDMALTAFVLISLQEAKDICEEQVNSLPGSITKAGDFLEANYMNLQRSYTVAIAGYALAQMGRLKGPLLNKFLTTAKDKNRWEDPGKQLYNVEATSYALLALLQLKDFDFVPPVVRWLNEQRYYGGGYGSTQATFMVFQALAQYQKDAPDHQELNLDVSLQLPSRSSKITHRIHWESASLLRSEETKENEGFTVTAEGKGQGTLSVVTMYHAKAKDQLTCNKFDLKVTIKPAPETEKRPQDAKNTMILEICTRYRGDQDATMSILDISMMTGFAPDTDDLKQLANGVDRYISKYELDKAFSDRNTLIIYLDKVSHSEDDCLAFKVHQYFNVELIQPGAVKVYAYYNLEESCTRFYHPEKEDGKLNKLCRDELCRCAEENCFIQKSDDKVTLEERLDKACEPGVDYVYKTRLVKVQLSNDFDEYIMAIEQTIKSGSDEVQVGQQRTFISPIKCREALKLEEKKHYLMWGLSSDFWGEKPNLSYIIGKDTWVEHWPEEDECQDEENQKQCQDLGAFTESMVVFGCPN

Row | Substance | Kd [1] [nM] | koff [1] [s⁻¹] | kon [1] [M⁻¹ s⁻¹] | Kd [2] [nM] | Kd [3] [nM]
1 | SCIN-B.R44A (natural protein) | 2600 | 0.35 | 140000 | 2500 | –
2 | SCIN-B.R44A.Y51A (natural protein) | 5100 | 0.51 | 110000 | 2500 | 3500
3 | SCIN-B.Y51A (natural protein) | 810 | – | – | 1000 | 900
4 | staphylococcal complement inhibitor SCIN-B, full-length wild type (natural protein) | 202 | – | 520000 | 390 | –
